Sequences and labels used below:
B1: target 1 insU 3' of 13,insU 3' of 7 (mixed)
RNA 1: CACCCGUGCAAAAAUGCAGGGGUCUAAAACUGAGCGGAUAACCUCUCUAUGG
RNA 2: GGGAAUGGAUCCACAUCUACGAAUUCGUACCAUAGAGAGUGUUAUCUCGCUCACCGAGAUCGGAAGAGCACACGU
B2: target 1 C4G,A14G (mixed)
RNA 1: CACCCGUGCAAAAAUGCAGGGGUCUAAAACUGAGCGGAUAACCUCUCUAUGG
RNA 2: GGGAAUGGAUCCACAUCUACGAAUUCGUACCAUAGAGGGGUUAUCCGGUCACCGAGAUCGGAAGAGCACACGU
B3: target 1 C2A,C6A (mixed)
RNA 1: CACCCGUGCAAAAAUGCAGGGGUCUAAAACUGAGCGGAUAACCUCUCUAUGG
RNA 2: GGGAAUGGAUCCACAUCUACGAAUUCGUACCAUAGAGAGGUUAUCAGCUAACCGAGAUCGGAAGAGCACACGU
B4: target 1 insU 3' of 14,insA 3' of 7 (mixed)
RNA 1: CACCCGUGCAAAAAUGCAGGGGUCUAAAACUGAGCGGAUAACCUCUCUAUGG
RNA 2: GGGAAUGGAUCCACAUCUACGAAUUCGUACCAUAGAGAUGGUUAUCACGCUCACCGAGAUCGGAAGAGCACACGU
B5: target 1 insC 3' of 14,insA 3' of 8 (mixed)
RNA 1: CACCCGUGCAAAAAUGCAGGGGUCUAAAACUGAGCGGAUAACCUCUCUAUGG
RNA 2: GGGAAUGGAUCCACAUCUACGAAUUCGUACCAUAGAGACGGUUAUACCGCUCACCGAGAUCGGAAGAGCACACGU
B6: target 1 insA 3' of 3,insC 3' of 1 (mixed)
RNA 1: CACCCGUGCAAAAAUGCAGGGGUCUAAAACUGAGCGGAUAACCUCUCUAUGG
RNA 2: GGGAAUGGAUCCACAUCUACGAAUUCGUACCAUAGAGAGGUUAUCCGCUACACCCGAGAUCGGAAGAGCACACGU
B7: target 1 U3A,U11G (mixed)
RNA 1: CACCCGUGCAAAAAUGCAGGGGUCUAAAACUGAGCGGAUAACCUCUCUAUGG
RNA 2: GGGAAUGGAUCCACAUCUACGAAUUCGUACCAUAGAGAGGGUAUCCGCACACCGAGAUCGGAAGAGCACACGU
B8: target 1 insA 3' of 3,insU 3' of 1 (mixed)
RNA 1: CACCCGUGCAAAAAUGCAGGGGUCUAAAACUGAGCGGAUAACCUCUCUAUGG
RNA 2: GGGAAUGGAUCCACAUCUACGAAUUCGUACCAUAGAGAGGUUAUCCGCUACAUCCGAGAUCGGAAGAGCACACGU
B9: target 1 C7G,U8G (mixed)
RNA 1: CACCCGUGCAAAAAUGCAGGGGUCUAAAACUGAGCGGAUAACCUCUCUAUGG
RNA 2: GGGAAUGGAUCCACAUCUACGAAUUCGUACCAUAGAGAGGUUAGGCGCUCACCGAGAUCGGAAGAGCACACGU
B10: target 1 insG 3' of 19,insC 3' of 3 (mixed)
RNA 1: CACCCGUGCAAAAAUGCAGGGGUCUAAAACUGAGCGGAUAACCUCUCUAUGG
RNA 2: GGGAAUGGAUCCACAUCUACGAAUUCGUACCAUGAGAGAGGUUAUCCGCUCCACCGAGAUCGGAAGAGCACACGU
B11: target 1 insC 3' of 11,insG 3' of 8 (mixed)
RNA 1: CACCCGUGCAAAAAUGCAGGGGUCUAAAACUGAGCGGAUAACCUCUCUAUGG
RNA 2: GGGAAUGGAUCCACAUCUACGAAUUCGUACCAUAGAGAGGUCUAUGCCGCUCACCGAGAUCGGAAGAGCACACGU
B12: target 1 G17U,U19A (mixed)
RNA 1: CACCCGUGCAAAAAUGCAGGGGUCUAAAACUGAGCGGAUAACCUCUCUAUGG
RNA 2: GGGAAUGGAUCCACAUCUACGAAUUCGUACCAAAUAGAGGUUAUCCGCUCACCGAGAUCGGAAGAGCACACGU
B13: target 1 insC 3' of 17,insA 3' of 3 (mixed)
RNA 1: CACCCGUGCAAAAAUGCAGGGGUCUAAAACUGAGCGGAUAACCUCUCUAUGG
RNA 2: GGGAAUGGAUCCACAUCUACGAAUUCGUACCAUAGCAGAGGUUAUCCGCUACACCGAGAUCGGAAGAGCACACGU
B14: target 1 insC 3' of 19,insC 3' of 13 (mixed)
RNA 1: CACCCGUGCAAAAAUGCAGGGGUCUAAAACUGAGCGGAUAACCUCUCUAUGG
RNA 2: GGGAAUGGAUCCACAUCUACGAAUUCGUACCAUCAGAGAGCGUUAUCCGCUCACCGAGAUCGGAAGAGCACACGU
B15: target 1 G13C,C22U (mixed)
RNA 1: CACCCGUGCAAAAAUGCAGGGGUCUAAAACUGAGCGGAUAACCUCUCUAUGG
RNA 2: GGGAAUGGAUCCACAUCUACGAAUUCGUAUCAUAGAGACGUUAUCCGCUCACCGAGAUCGGAAGAGCACACGU
B16: target 1 insA 3' of 3,insG 3' of 1 (mixed)
RNA 1: CACCCGUGCAAAAAUGCAGGGGUCUAAAACUGAGCGGAUAACCUCUCUAUGG
RNA 2: GGGAAUGGAUCCACAUCUACGAAUUCGUACCAUAGAGAGGUUAUCCGCUACAGCCGAGAUCGGAAGAGCACACGU
B17: target 1 G5C,U19C (mixed)
RNA 1: CACCCGUGCAAAAAUGCAGGGGUCUAAAACUGAGCGGAUAACCUCUCUAUGG
RNA 2: GGGAAUGGAUCCACAUCUACGAAUUCGUACCACAGAGAGGUUAUCCCCUCACCGAGAUCGGAAGAGCACACGU
B18: target 1 insG 3' of 18,insA 3' of 13 (mixed)
RNA 1: CACCCGUGCAAAAAUGCAGGGGUCUAAAACUGAGCGGAUAACCUCUCUAUGG
RNA 2: GGGAAUGGAUCCACAUCUACGAAUUCGUACCAUAGGAGAGAGUUAUCCGCUCACCGAGAUCGGAAGAGCACACGU
B19: target 1 insC 3' of 18,insG 3' of 7 (mixed)
RNA 1: CACCCGUGCAAAAAUGCAGGGGUCUAAAACUGAGCGGAUAACCUCUCUAUGG
RNA 2: GGGAAUGGAUCCACAUCUACGAAUUCGUACCAUACGAGAGGUUAUCGCGCUCACCGAGAUCGGAAGAGCACACGU
B20: target 1 U11G,C22A (mixed)
RNA 1: CACCCGUGCAAAAAUGCAGGGGUCUAAAACUGAGCGGAUAACCUCUCUAUGG
RNA 2: GGGAAUGGAUCCACAUCUACGAAUUCGUAACAUAGAGAGGGUAUCCGCUCACCGAGAUCGGAAGAGCACACGU
B21: target 1 insA 3' of 7 (mixed)
RNA 1: CACCCGUGCAAAAAUGCAGGGGUCUAAAACUGAGCGGAUAACCUCUCUAUGG
RNA 2: GGGAAUGGAUCCACAUCUACGAAUUCGUACCAUAGAGAGGUUAUCACGCUCACCGAGAUCGGAAGAGCACACGU
B22: target 1 insG 3' of 8,insG 3' of 2 (mixed)
RNA 1: CACCCGUGCAAAAAUGCAGGGGUCUAAAACUGAGCGGAUAACCUCUCUAUGG
RNA 2: GGGAAUGGAUCCACAUCUACGAAUUCGUACCAUAGAGAGGUUAUGCCGCUCGACCGAGAUCGGAAGAGCACACGU
B23: target 1 U10C,U19A (mixed)
RNA 1: CACCCGUGCAAAAAUGCAGGGGUCUAAAACUGAGCGGAUAACCUCUCUAUGG
RNA 2: GGGAAUGGAUCCACAUCUACGAAUUCGUACCAAAGAGAGGUCAUCCGCUCACCGAGAUCGGAAGAGCACACGU
B24: target 1 insU 3' of 17,insA 3' of 12 (mixed)
RNA 1: CACCCGUGCAAAAAUGCAGGGGUCUAAAACUGAGCGGAUAACCUCUCUAUGG
RNA 2: GGGAAUGGAUCCACAUCUACGAAUUCGUACCAUAGUAGAGGAUUAUCCGCUCACCGAGAUCGGAAGAGCACACGU
B25: target 1 A1C,G5U (mixed)
RNA 1: CACCCGUGCAAAAAUGCAGGGGUCUAAAACUGAGCGGAUAACCUCUCUAUGG
RNA 2: GGGAAUGGAUCCACAUCUACGAAUUCGUACCAUAGAGAGGUUAUCCUCUCCCCGAGAUCGGAAGAGCACACGU
B26: target 1 C7A,A16C (mixed)
RNA 1: CACCCGUGCAAAAAUGCAGGGGUCUAAAACUGAGCGGAUAACCUCUCUAUGG
RNA 2: GGGAAUGGAUCCACAUCUACGAAUUCGUACCAUAGCGAGGUUAUACGCUCACCGAGAUCGGAAGAGCACACGU
B27: target 1 insC 3' of 20,insA 3' of 17 (mixed)
RNA 1: CACCCGUGCAAAAAUGCAGGGGUCUAAAACUGAGCGGAUAACCUCUCUAUGG
RNA 2: GGGAAUGGAUCCACAUCUACGAAUUCGUACCACUAGAAGAGGUUAUCCGCUCACCGAGAUCGGAAGAGCACACGU

This data set concerns the target T1, EsCas13d, nuclease-dead (Eubacterium siraeum, UniProt B0MS50, R295A;H300A;R849A;H854A).
T1 sequence: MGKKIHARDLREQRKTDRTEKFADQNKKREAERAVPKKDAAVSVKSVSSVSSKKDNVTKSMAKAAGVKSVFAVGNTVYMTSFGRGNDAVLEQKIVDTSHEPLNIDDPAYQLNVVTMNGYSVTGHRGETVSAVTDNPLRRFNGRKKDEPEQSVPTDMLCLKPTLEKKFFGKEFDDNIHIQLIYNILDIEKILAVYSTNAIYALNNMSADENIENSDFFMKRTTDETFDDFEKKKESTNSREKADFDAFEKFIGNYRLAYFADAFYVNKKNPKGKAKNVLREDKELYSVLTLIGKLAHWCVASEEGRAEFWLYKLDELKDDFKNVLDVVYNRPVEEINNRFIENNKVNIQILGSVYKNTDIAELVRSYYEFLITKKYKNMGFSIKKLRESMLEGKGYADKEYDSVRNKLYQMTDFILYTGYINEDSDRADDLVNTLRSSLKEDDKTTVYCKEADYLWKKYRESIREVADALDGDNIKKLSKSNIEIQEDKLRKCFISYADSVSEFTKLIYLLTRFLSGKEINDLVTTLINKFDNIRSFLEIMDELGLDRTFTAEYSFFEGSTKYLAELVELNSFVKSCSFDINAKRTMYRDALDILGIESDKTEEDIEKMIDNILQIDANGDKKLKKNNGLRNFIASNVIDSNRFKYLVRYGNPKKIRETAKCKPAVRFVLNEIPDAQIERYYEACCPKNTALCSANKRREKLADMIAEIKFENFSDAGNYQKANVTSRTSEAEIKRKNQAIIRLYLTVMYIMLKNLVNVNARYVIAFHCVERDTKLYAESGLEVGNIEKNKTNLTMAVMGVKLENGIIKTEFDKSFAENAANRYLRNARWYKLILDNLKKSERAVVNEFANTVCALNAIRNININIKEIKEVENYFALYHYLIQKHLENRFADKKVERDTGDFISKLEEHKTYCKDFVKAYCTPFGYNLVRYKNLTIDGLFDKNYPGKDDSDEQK
Kind of data set: crRNA (strand 1, pre-loaded); Mg2+; 40 mM Tris-HCl pH 7.5, 150 mM NaCl, 6 mM MgCl2, 1 mM DTT, 0.1% Tween-20, 0.2 mg/ml BSA; 25 C; 10 min per concentration, then washed. As to conditions: tags: His6-TwinStrep-SUMO cleaved; N-terminal SNAP kept (SNAP-Surface 488); label: 3' end held by stalled T7 RNA polymerase.
As to B1, the Kd (as a rule, the equilibrium constant for the complex coming apart) came out at 13.7 ± 0.8 nM.

Regarding B2, the Kd came to 13.2 ± 1.2 nM.

With B3, binding was characterised by a dissociation constant (Kd) of 4.84 ± 0.28 nM.

Molecule B4 gave a Kd of 32.2 ± 3 nM.

As for B5, binding was characterised by a dissociation constant (Kd) of 49 ± 5 nM.

Molecule B6 showed a Kd of 23 ± 4 nM.

With B7, the Kd was found to be 12.2 ± 0.7 nM.

The molecule B8 registered a Kd of 9.2 ± 0.5 nM.

B9 came in with a Kd of 11.5 ± 0.9 nM.

The molecule B10 displayed a Kd of 62 ± 8 nM.

In turn, B11 came in with a Kd of 64 ± 8 nM.

B12 came in with a Kd of 36.8 ± 2.9 nM.

As for B13, binding was put at a Kd of 53 ± 8 nM. This Kd and that of the molecule before are within 1.5-fold of each other.

B14: binding was characterised by a dissociation constant (Kd) of 49 ± 15 nM.

The molecule B15 showed a Kd of 62 ± 19 nM.

In the case of B16, the Kd came to 5.69 ± 0.25 nM.

Turning to B17, the Kd amounted to 32 ± 6 nM.

As for B18, the Kd was 46 ± 6 nM.

In turn, B19 yielded a Kd of 36.8 ± 2.2 nM. This Kd and that of the molecule before are within 1.5-fold of each other.

Consider B20, for which the Kd stood at 39 ± 8 nM.

As for B21, the Kd turned out to be 5.49 ± 0.21 nM. This Kd is about 7.1-fold lower than that of the molecule before.

B22 displayed a Kd of 13.1 ± 0.6 nM.

B23 yielded a Kd of 100 ± 40 nM. Against the preceding molecule, the Kd is about 7.6-fold higher.

B24: the Kd is 37 ± 6 nM. This Kd lies about 2.7-fold lower than the previous one.

Regarding B25, the Kd turned out to be 33 ± 4 nM.

As for B26, the Kd worked out at 56.1 ± 2.7 nM.

B27 gave a Kd of 8.5 ± 0.8 nM.

These data come from PMC10786891, “Massively parallel profiling of RNA-targeting CRISPR-Cas13d”.
